From patent US12180519B2, “Cocaine esterase mutant and use thereof” (Hangzhou Normal University, priority 2021, dated 2024)
Changes are numbered by the printed parent chain. Numbers in names are those of the source.

B1: V116K: cocaine esterase mutant, 116th valine mutated into lysine (protein, listed as Rhodococcus sp.)
chain: MVDGNYSVASNVMVPMRDGVRLAVDLYRPDADGPVPVLLVRNPYDKFDVFAWSTQSTNWLEFVRDGYAVVIQDTRGLFASEGEFVPHVDDEADAEDTLSWILEQAWCDGNVGMFGKSYLGVTQWQAAVSGVGGLKAIAPSMASADLYRAPWYGPGGALSVEALLGWSALIGRQLITSRSDARPEDAADFVQLAAICNDVAGAASVTPLAEQPLLGRLIPWVIDQVVDHPDNDESWQSISLFERLGGLATPALITAGWYDGFVGESLRTFVAVKDNADARLVVGPWSHSNLTGRNADRKFGCAATYPIQEATTMHKAFFDRHLRGETDALAGVPKVRLFVMGIDEWRDETDWPLPDTAYTPFYLGGSGAANTSTGGGTLSTSISGTESADTYLYDPADPVPSLGGTLLFHNGDNGPADQRPIHDRDDVLCYSTEVLTDPVEVTGTVSARLFVSSSAVDTDFTAKLVDVFPDGRAIALCDGIVRMRYRETLVNPTLIEAGEIYEVAIDMLATSNVFLPGHRIMVQVSSSNFPKYDRNSNTGGVIAREQLEEMCTAVNRIHRGPEHPSHIVLPIIKR
B2: Wildtype WT: wildtype bacterial cocaine esterase, amino acid sequence SEQ ID No. 1 (protein, listed as Rhodococcus sp.)
chain: B1 chain with K116V
B3: T172R/G173Q/L196C/I301C/V116K/A51L: cocaine esterase mutant of SEQ ID No. 1 with the named mutations (protein, UniProt Q9L9D7 1-574, looked up, variant T172R G173Q L196C I301C V116K A51L)
Cocaine esterase: B1 chain with A51L
B4: T172R/G173Q/L196C/I301C/V116K/A51V: cocaine esterase mutant of SEQ ID No. 1 with the named mutations (protein, UniProt Q9L9D7 1-574, looked up, variant T172R G173Q L196C I301C V116K A51V)
Cocaine esterase: B1 chain with A51V
B5: T172R/G173Q/L196C/I301C/V116K/A51W: cocaine esterase mutant of SEQ ID No. 1 with the named mutations (protein, UniProt Q9L9D7 1-574, looked up, variant T172R G173Q L196C I301C V116K A51W)
Cocaine esterase: B1 chain with A51W
B6: T172R/G173Q: CocE T172R/G173Q mutant that completed the clinical test II phase of cocaine detoxification (protein, listed as Rhodococcus sp.)
chain: B1 chain with K116V
B7: T172R/G173Q/V116K: cocaine esterase mutant of SEQ ID No. 1 with the named mutations (protein, UniProt Q9L9D7 1-574, looked up, variant T172R G173Q V116K)
Cocaine esterase: B1 chain with C196L, C301I
B8: T172R/G173Q/L196C/I301C/V116K/A51Y: cocaine esterase mutant of SEQ ID No. 1 with the named mutations (protein, UniProt Q9L9D7 1-574, looked up, variant T172R G173Q L196C I301C V116K A51Y)
Cocaine esterase: B1 chain with A51Y
B9: T172R/G173Q/L196C/I301C/V116K/A51F: cocaine esterase mutant of SEQ ID No. 1 with the named mutations (protein, UniProt Q9L9D7 1-574, looked up, variant T172R G173Q L196C I301C V116K A51F)
Cocaine esterase: B1 chain with A51F
B10: T172R/G173Q/L196C/I301C: cocaine esterase mutant with the named mutations, comparator without V116K (protein, listed as Rhodococcus sp.)
chain: B1 chain with K116V
B11: T172R/G173Q/L196C/I301C/V116K: cocaine esterase mutant of SEQ ID No. 1 with the named mutations (protein, UniProt Q9L9D7 1-574, looked up, variant T172R G173Q L196C I301C V116K)
Cocaine esterase: B1 chain

Assay: Enzyme activity analysis: in vitro catalytic reaction of CocE enzymes to substrate BZE (HPLC, Michaelis-Menten)
Assay type: biochemical
Details: not given
Excerpt: Firstly, an experimental method for detecting a substrate BZE and a product benzoic acid BA by HPLC was established. Both BZE and BA had strong ultraviolet absorption at 230 nm. In HPLC analysis, acetonitrile and 0.1% formic acid were used as mobile phases to separate BZE and BA by C18 liquid chromatography column. The absorption of BZE and BA at wavelength 230 nm was detected by an ultraviolet detector, and linear standard curves of BZE and BA were obtained. The activity of BZE reaction catalyzed by CocE was determined, and the reaction temperature was 25° C., with three repetitions in each group. An enzymatic reaction was started by 50 μL of substrate BZE solution with 50 μL of enzyme solution (diluted with 0.1 M phosphate buffer (pH 7.4)).
50 μL of 10% perchloric acid was added to stop the reaction, and then, 50 μL of acetonitrile was added, and the mixture was centrifuged at 12,000 rpm for 5 minutes. Then, the supernatant was diluted to an appropriate multiple and injected into […]. The peak time, peak areas and curves of BZE and BA were compared, and the residual BZE concentration and the BA concentration in the reaction sample were calculated. The kcat and KM of each mutant could be obtained by calculating the reaction rates of BA catalyzed by enzyme at different substrate concentrations, drawing a kinetic curve of the enzyme reaction with GraphPad Prism 8, and performing Michaelis-Menten kinetic analysis.

Row | Molecule | catalytic efficiency on benzoylecgonine compared with the wildtype enzyme (in words)
1 | B1 | greatly improved

Same assay, conditions: substrate BZE

Row | Molecule | RCE, ratio of catalytic efficiency of the mutant enzyme to BZE and that of the wildtype enzyme
2 | B2 | 1.0
3 | B3 | 536.5
4 | B4 | 137.6
5 | B5 | 132.5
6 | B6 | 1.6
7 | B7 | 110.8
8 | B8 | 357.4
9 | B9 | 211.8
10 | B10 | 2.6
11 | B1 | 61.2
12 | B11 | 210.3

Same assay, conditions: substrate BZE, 25° C., 0.1 M phosphate buffer pH 7.4

Row | Molecule | Km [µM] | kcat [s⁻¹]
13 | B2 | 5150 | 5.02
14 | B3 | 27.8 | 14.6
15 | B4 | 86.2 | 11.55
16 | B5 | 95.6 | 12.34
17 | B6 | 4360 | 6.978
18 | B7 | 65.6 | 7.087
19 | B8 | 43.6 | 15.18
20 | B9 | 59.3 | 12.23
21 | B10 | 3710 | 9.278
22 | B1 | 89.6 | 5.34
23 | B11 | 46.3 | 9.477

Assay: High-activity CocE mutant accelerated BZE metabolism in vivo (rat blood BZE and BA by HPLC)
Set-up: species or system SD rats
Details: 0.2 or 1 mg/kg mutant i.v., then 2 mg/kg BZE i.v.; FIGS. 3A and 3B
Protocol: Experimental male SD rats (200 g/rat) purchased from Laboratory Animal Center of Zhejiang Academy of Medical Sciences were raised in a constant-temperature and constant-humidity environment. The feeding and experimental application was carried out by following Guide for the Care and Use of Laboratory Animals.
Blood was collected from the femoral vein of rats using a blood collection needle and a heparin-treated capillary. Firstly, eight tubes of blood from the same rat, 75 μL in each tube, were added to 100 μL of 250 μM paraxon to inhibit the effect of endogenous metabolizing enzymes on BZE, and frozen at −80° C. After thawing, 19.7 μL of mixed solution containing 0, 4, 10, 20, 40, 60, 100 and 200 μM BA and BE standards, then subjected to vortex for 20 seconds, and then added with 150 μL of acetonitrile and subjected to vortex for 1 minutes, then added with 50 μL of 10% HClO4 and subjected to vortex for 1 minutes, centrifuged at 17,000 rcf for 15 minutes, and then centrifuged again after the supernatant was transferred. 250 μL of supernatant were taken out for HPLC analysis. The sample volume was 100 μL, and the HPLC experimental conditions were the same as those in Embodiment 3. The concentrations of BZE and BA in the final standard samples were 0, 0.2, 0.5, 1, 2, 3, 5 and 10 μM respectively.
There were 5 rats in each group. Firstly, 0.2 or 1 mg/kg of high-active CocE mutant or normal saline was injected into the tail vein of rats, and 2 mg/kg BZE was injected into the tail vein within 1 minute. After BZE injection, 75 μL of blood samples were taken at the 0th, 2nd, 5th, 10th, 30th, 60th, 90th and 120th minutes respectively, and 100 μL of 250 μM paraxon were added in each sample, and then frozen at −80° C. After thawing, the samples were subjected to vortex for 20 seconds, then added with 150 μL of acetonitrile and subjected to vortex for 1 minute, then added with 50 μL of 10% HClO4 and subjected to vortex for 1 minute, centrifuged at 17,000 g for 15 minutes, and then centrifuged again after the supernatant was transferred. 250 μL of supernatant were taken out for HPLC analysis. The sample volume was 100 μL. The BA and BZE concentrations in the blood of rats in each group at different time points were calculated according to the blood sample standard curve of the standards, so as to obtain the metabolism of BZE with or without the high-activity CocE mutant.

Row | Molecule | BZE metabolism in rats (in words)
24 | B3 | accelerating BZE metabolism
25 | B4 | accelerating BZE metabolism

Same assay, conditions: rats, 2 mg/kg BZE i.v. without mutant, second minute

Row | Molecule | BA concentration in the blood | BZA concentration in the blood [µM]
26 | CN1[C@H]2CC[C@@H]1[C@@H](C(=O)O)[C@@H](OC(=O)c1ccccc1)C2 [BZE, benzoylecgonine, reference compound] | less than 0.5 μM | 15.8

Assay: not given
Details: in vivo; cited from earlier work

Row | Molecule | share of cocaine bio-converted by BChE and CE-2 to ecgonine methyl ester (EME) | share of cocaine hydrolyzed by CE-1 in liver to benzoyllecgonine (BZE) [%]
27 | COC(=O)[C@H]1[C@@H](OC(=O)c2ccccc2)C[C@@H]2CC[C@H]1N2C [cocaine] | about 40% | 45
